Results: patent US20150299322A1 (Dana-Farber, published 2015)

B1: recombinant mouse BMP-4 (R&D) (ligand, UniProt P21275 293-408, looked up)
chain: SPKHHPQRSRKKNKNCRRHSLYVDFSDVGWNDWIVAPPGYQAFYCHGDCPFPLADHLNSTNHAIVQTLVNSVNSSIPKACCVPTELSAISMLYLDEYDKVVLKNYQEMVVEGCGCR
notes: Coated on ELISA plates at 1 ug/ml; also called mBMP-4; BMP-2/4
B2: mouse PD-1 (mPD-1) expressed on transfected 300 cells (receptor, UniProt Q02242 25-288, looked up)
chain: LEVPNGPWRSLTFYPAWLTVSEGANATFTCSLSNWSEDLMLNWNRLSPSNQTEKQAAFCNGLSQPVQDARFQIIQLPNRHDFHMNILDTRRNDSGIYLCGAISLHPKAKIEESPGAELVVTERILETSTRYPSPSPKPEGRFQGMVIGIMSALVGIPVLLLLAWALAVFCSTSMSEARGAGSKDDTLKEEPSAAPVPSVAYEELDFQGREKTPELPTACVHTEYATIVFTEGLGASAMGRRGSADGLQGPRPPRHEDGHCSWPL
notes: whole, on cells; also called 300-mPD-1 cells; mPD-1 cells
B3: hPD-L2-mIgG2a fusion protein (Fc fusion)
chain: LFTVTVPKELYIIEHGSNVTLECNFDTGSHVNLGAITASLQKVENDTSPHRERATLLEEQLPLGKASFHIPQVQVRDEGQYQCIIIYGVAWDYKYLTLKVKASYRKINTHILKVPETDEVELTCQATGYPLAEVSWPNVSVPANTSHSRTPEGLYQVTSVLRLKPPPGRNFSCVFWNTHVRELTLASIDLQSQMEPRTHPT
notes: not shown: mouse IgG2a part
B4: recombinant mouse BMP-2 (GIBCO) (ligand, UniProt P21274 281-394, looked up)
chain: QAKHKQRKRLKSSCKRHPLYVDFSDVGWNDWIVAPPGYHAFYCHGECPFPLADHLNSTNHAIVQTLVNSVNSKIPKACCVPTELSAISMLYLDENEKVVLKNYQDMVVEGCGCR
notes: Coated on ELISA plates at 1 ug/ml; also called mBMP-2; BMP-2/4
B5: mouse PD-L2 (mPD-L2) expressed on transfected 300 cells (ligand, UniProt Q9WUL5 20-247, looked up)
chain: LFTVTAPKEVYTVDVGSSVSLECDFDRRECTELEGIRASLQKVENDTSLQSERATLLEEQLPLGKALFHIPSVQVRDSGQYRCLVICGAAWDYKYLTVKVKASYMRIDTRILEVPGTGEVQLTCQARGYPLAEVSWQNVSVPANTSHIRTPEGLYQVTSVLRLKPQPSRNFSCMFWNAHMKELTSAIIDPLSRMEPKVPRTWPLHVFIPACTIALIFLAIVIIQRKRI
notes: whole, on cells; also called 300-mPD-L2 cells; mPD-L2 transfected cells

Tests used:
[1] = target: T1, mPD-L2-Ig fusion protein (construct not told at the result) (mouse, UniProt Q9WUL5 20-221); assay: ELISA, coated BMP-4, PD-L2-Ig added without RGMb
T1 construct: extracellular domain; not shown: Ig part: the methods name mPD-L2-hIgG1/IgA, mPD-L2-mIgG2a/IgA and mPD-L2-hIgG (R&D)
T1 sequence (looked up): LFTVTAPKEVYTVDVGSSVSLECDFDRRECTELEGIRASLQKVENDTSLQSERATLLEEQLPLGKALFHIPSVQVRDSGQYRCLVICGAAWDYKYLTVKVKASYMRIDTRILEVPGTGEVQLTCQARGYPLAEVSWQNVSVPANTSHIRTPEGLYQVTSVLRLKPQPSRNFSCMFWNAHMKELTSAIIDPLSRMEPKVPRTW
Description: (§1) To determine if RGMb binds PD-L2 and BMP-2/4 simultaneously, 96-well ELISA plates were coated with BMP-2/4 as above. mPD-L2-hIgG1/IgA, mPD-L2-hIgG (R&D), mPD-L1-hIgG (R&D) or control-Ig fusion proteins at 10 μg/ml were preincubated with 10 μg/ml mRGMb-HIS (R&D) or buffer alone for 15 min. at room temperature (RT), then added to the plates and incubated for 1h at 37° C. Alternatively, 10 μg/ml mRGMb-HIS (R&D) or buffer alone was added first to the plates and incubated for 1h at 37° C. After wash, mPD-L2-Ig or control-Ig fusion proteins were added and incubated for 1h at 37° C. Fab₂ goat anti-hIgG-HRP (Jackson ImmunoResearch Laboratories) at 1:10000 was used for detection.
(§2) To test if RGMb can bind both PD-L2 and BMP at the same time, an ELISA was performed to analyze the binding capacity of PD-L2-Ig fusion protein to immobilized BMP-2/4 in the presence or absence of RGMb. PD-L2 could not directly bind to BMP-2/4, but in the presence of RGMb could form a complex with BMP when RGMb and PD-L2-Ig were added simultaneously (FIG. 4A-4B) or sequentially to BMP-2/4.

[2] = target: T2, recombinant mRGMb-HIS (R&D) (mouse, UniProt Q7TQ33 49-415, limits assumed); assay: ELISA, coated BMP-4, mRGMb-HIS bridging PD-L2-Ig
T2 construct: Bought from R&D; not shown: HIS tag
T2 sequence (looked up): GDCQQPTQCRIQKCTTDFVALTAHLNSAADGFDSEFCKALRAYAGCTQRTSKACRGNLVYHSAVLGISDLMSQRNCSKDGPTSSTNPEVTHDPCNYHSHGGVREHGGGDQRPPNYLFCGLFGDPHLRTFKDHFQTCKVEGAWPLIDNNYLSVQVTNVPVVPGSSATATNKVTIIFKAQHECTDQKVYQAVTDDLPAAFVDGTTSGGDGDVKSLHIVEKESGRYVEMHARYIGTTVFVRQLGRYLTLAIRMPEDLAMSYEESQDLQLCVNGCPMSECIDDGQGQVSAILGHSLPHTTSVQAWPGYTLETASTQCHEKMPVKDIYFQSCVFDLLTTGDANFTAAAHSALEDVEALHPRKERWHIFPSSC
Description: as §1, §2

[3] = target: T3, mouse PD-L1 (mPD-L1) expressed on transfected 300 cells (mouse, UniProt Q9EP73 19-290); assay: cell conjugation assay, flow cytometry
T3 construct: whole, on cells; also called 300-mPDL 1; mPD-L1 cells
Description: (§3) An assay for receptor-ligand binding was developed based on cell to cell binding as determined by flow cytometry. One transfected cell type was labelled with the red dye PKH26 (Sigma) and the other transfected cell with the green dye PKH67 (Sigma) according to the manufacturer's instructions. Red dye-labelled and green dye-labelled cells ([…] each cell type) were incubated in 200 μl of HBSS buffer without calcium and magnesium (GIBCO) supplemented with 10% heat-inactivated FBS (Invitrogen), 15 μg/ml gentamicin (Invitrogen) and 1% HEPES (Invitrogen) in a round bottom 96-well plate for 45 min at 37° C. When the cell conjugation assay was used to test the blocking capacity of antibodies, one transfected cell type was pre-incubated 30 min at RT with antibodies before adding the other type of transfected cells. Conjugate formation was analyzed immediately by flow cytometry using the PE channel for the red dye and the FITC channel for the green dye. The automated plate harvester of the FACSCanto (BD Biosciences) was used for uniformity of cell processing. The instrument settings were as follows, throughput mode: standard, loader settings: sample flow rate at 0.5 μl/second, sample volume and mixing volume at 100 μl, mixing speed at 50 μl/second, number of mixes at 2, and wash volume at 400 μl.
(§4) To test the RGMb:PD-L2 interaction under more physiologic conditions, a cell conjugation assay was used where one transfected cell type was labeled with a red dye and the other transfected cell type with a green dye. The binding of the two cell types was assessed by flow cytometry and indicated by double positive events (yellow dots). […] FIGS. 1L, 1N, 1P, and 1R show only the dot plots without corresponding FSC-SSC plots. As expected, mRGMb cells bound to mPD-L2 cells (FIG. 1K), but not mPD-L1 cells (FIG. 1L). As positive controls, mPD-1 cells bound to both mPD-L2 and mPD-L1 cells (FIGS. 1M-1N). Negative control binding assays had very few conjugates (<0.3%) (FIGS. 1O-1R).

[4] = target: T4, recombinant hRGMb-HIS (R&D) (human, UniProt Q6NW40 46-413); assay: ELISA, coated hRGMb-HIS, PD-L2-Ig in solution
T4 construct: Bought from R&D; not shown: HIS tag
T4 sequence: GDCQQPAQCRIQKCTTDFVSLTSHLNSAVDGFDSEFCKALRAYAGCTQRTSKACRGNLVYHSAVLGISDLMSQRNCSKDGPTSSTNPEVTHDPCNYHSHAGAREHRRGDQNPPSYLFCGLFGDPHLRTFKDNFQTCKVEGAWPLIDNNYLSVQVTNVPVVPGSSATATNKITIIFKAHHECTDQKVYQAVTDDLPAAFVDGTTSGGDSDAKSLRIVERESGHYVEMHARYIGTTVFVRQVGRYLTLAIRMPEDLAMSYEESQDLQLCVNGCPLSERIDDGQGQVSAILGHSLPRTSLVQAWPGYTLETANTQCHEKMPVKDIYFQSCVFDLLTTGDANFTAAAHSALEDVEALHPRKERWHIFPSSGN
Description: (§5) To examine RGMa/RGMb/RGMc and PD-L2 interaction, 96-well ELISA plates were coated with 2 or 5 μg/ml of recombinant mRGMa-HIS, mRGMb-HIS, mRGMc-HIS, or hRGMb-HIS (R&D). Then, serial dilutions of mPD-L2-hIgG1/IgA, mPD-L2-mIgG2a/IgA, hPD-L2-mIgG2a or control-Ig fusion proteins were added and incubated for 1h at 37° C. Fab₂ goat anti-hIgG-HRP (Jackson ImmunoResearch Laboratories) or rat anti-mIgG2a-HRP (BD Biosciences) at 1:1000 or 1:10000 were used for detection.

[5] = target: T2, recombinant mRGMb-HIS (R&D); assay: ELISA, coated mRGMb-HIS, PD-L2-Ig in solution
Description: as §5

[6] = target: T1, mPD-L2-Ig fusion protein (construct not …); assay: ELISA, coated BMP-2, PD-L2-Ig added without RGMb
Description: as §1, §2

[7] = target: T2, recombinant mRGMb-HIS (R&D); assay: ELISA, coated BMP-2, mRGMb-HIS bridging PD-L2-Ig
Description: as §1, §2

[8] = target: T5, mRGMb-Ig fusion protein (mRGMb-mIgG2a) (mouse, UniProt Q7TQ33 49-415, limits assumed); assay: flow cytometry on mPD-L2 transfected 300 cells
T5 construct: extracellular domain; Purified from CHO cell culture supernatants
T5 sequence (looked up): T2 sequence (looked up)

[9] = target: B2; assay: cell conjugation assay, flow cytometry
Description: as §3, §4

[10] = target: T6, mouse RGMb (mRGMb) expressed on transfected cells (mouse, UniProt Q7TQ33 49-415); assay: cell conjugation assay, flow cytometry
T6 construct: whole, on cells; Also used for mRGMb in cell lysates (Western blot); also called DRAGON; 300-mRGMb cells
T6 sequence (looked up): T2 sequence (looked up)
Description: as §3, §4

T3 sequence (Q9EP73 19-290): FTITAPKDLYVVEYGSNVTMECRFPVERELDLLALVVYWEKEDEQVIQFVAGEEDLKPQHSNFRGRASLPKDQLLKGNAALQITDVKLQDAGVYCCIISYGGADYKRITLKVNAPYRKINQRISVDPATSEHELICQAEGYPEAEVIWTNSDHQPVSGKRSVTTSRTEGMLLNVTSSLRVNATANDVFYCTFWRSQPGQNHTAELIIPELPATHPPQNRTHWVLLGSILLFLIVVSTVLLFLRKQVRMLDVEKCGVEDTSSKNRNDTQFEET

B1: no binding (tested: 10 ug/ml) [1]; binds [2].

B2: binds [3].

B3: binds [4]; binds [5].

B4: no binding (tested: 10 ug/ml) [6]; binds [7].

B5: binds [8]; binds [9]; binds [10].
